In patent US6965850B2, “Methods for modulating nuclear receptor coactivator binding” (The Regents of the University of California, priority 1998, dated 2005):
Each block holds one molecule with its values, some of them ahead of it. Ends that are not written are not given here.

Experiments:
hTRβ LBD [1] = molecular target: T1, hTRβ LBD (Homo sapiens, UniProt P10828); test: Peptide competition of GRIP1 (563-767) interaction with hTRβ LBD; type: binding; parameters: made in house; host or cells: TR LBD: in vitro translation (reticulocyte lysate); GST-GRIP1 fragment: E. coli HB101
T1 sequence (P10828 202-461): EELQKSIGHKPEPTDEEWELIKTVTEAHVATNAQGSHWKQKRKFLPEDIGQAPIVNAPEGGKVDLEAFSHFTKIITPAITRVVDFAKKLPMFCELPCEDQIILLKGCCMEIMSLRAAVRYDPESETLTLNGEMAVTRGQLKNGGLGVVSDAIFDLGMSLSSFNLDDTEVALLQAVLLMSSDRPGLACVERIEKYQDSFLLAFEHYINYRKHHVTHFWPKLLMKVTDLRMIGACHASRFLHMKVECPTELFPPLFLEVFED
Description: (§1) For in vitro binding studies GR, TR and their derivatives were translated in the presence of [^35S]methionine using the TNT Coupled Reticulocyte System (Promega). Separate translations were performed in the presence and absence of 10 μM dexamethasone or 1 μM RU486 for GR and 10 μM triiodothyronine for TR. Expression was quantified by phosphoimager analysis (BAS2000, Fuji). For all binding assays 50 μl of a 20% bead suspension containing either 1.6 or 4.0 μM bound purified GST GRIP1 fragment (either 568-767 or 563-1121) was incubated with 0.2 μl or 1.4 μl in vitro transcribed and translated TR or GR, respectively. Binding was performed in the binding buffer described above supplemented with 20 μg/ml BSA and appropriate hormone. The chosen GST GRIP1 fragment concentrations were sufficient to bind either 70 or 100% of the TR derivatives. The reaction was incubated at 4° C. under rotation for 2 hours. In case of competition experiments, the appropriate concentration of peptides were added to the reaction before addition of receptors. However, no differences in the results were noted by adding the peptides after half of the incubation of the GST GRIP1 fragment with nuclear receptors. […] Beads were washed five times with 200 μl binding buffer+BSA at 4° C. before elution of the bound proteins in 20 μl SDS loading buffer. Eluted beads and input labeled protein were subjected to SDS-PAGE. The fraction of bound nuclear receptors was determined by phosphoimager analysis.

hERα-LBD = molecular target: T2, hERα-LBD (Homo sapiens, UniProt P03372); test: Electrophoretic mobility shift assay with purified hERα-LBD; type: binding; details: 2-fold or 10-fold molar excess of peptide, 6% native PAGE
T2 construct: made in house; host or cells: E. coli BL21(DE3)pLysS
T2 sequence (P03372 297-554): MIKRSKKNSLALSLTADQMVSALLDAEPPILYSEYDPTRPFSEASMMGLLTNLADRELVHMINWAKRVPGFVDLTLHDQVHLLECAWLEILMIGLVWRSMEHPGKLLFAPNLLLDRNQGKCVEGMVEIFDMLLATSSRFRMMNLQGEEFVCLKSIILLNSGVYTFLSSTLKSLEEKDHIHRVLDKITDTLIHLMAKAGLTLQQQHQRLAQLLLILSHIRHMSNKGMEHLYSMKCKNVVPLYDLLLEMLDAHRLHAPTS
Description: An electrophoretic mobility shift assay was used to directly assess the ability of the NR-box 2 peptide to bind the purified ERα LBD in the presence of either DES or OHT. Eight microgram samples of purified hERα-LBD bound to either DES or OHT were incubated in the absence of the peptide, i.e., buffer alone, or in the presence of either a 2-fold or 10-fold molar excess of the GRIP1 NR-box 2 peptide. The binding reactions were performed on ice for 45 minutes in 10 μl of buffer containing 20 mM Tris, pH 8.1, 1 mM DTT, and 200 mM NaCl and then subjected to 6% native PAGE. Gels were stained with GELCODE Blue Stain reagent (Pierce).

GR = test: GST-GRIP1 fragment pull-down of GR; type: binding
Description: as §1

hTRβ LBD [2] = molecular target: T1, hTRβ LBD; test: GST-GRIP1 fragment pull-down of TR; type: binding; parameters: made in house; host or cells: in vitro translation (TNT Coupled Reticulocyte System, Promega)
Description: For in vitro binding studies GR, TR and their derivatives were translated in the presence of [^35S]methionine using the TNT Coupled Reticulocyte System (Promega). Separate translations were performed in the presence and absence of 10 μM dexamethasone or 1 μM RU486 for GR and 10 μM triiodothyronine for TR. Expression was quantified by phosphoimager analysis (BAS2000, Fuji). For all binding assays 50 μl of a 20% bead suspension containing either 1.6 or 4.0 μM bound purified GST GRIP1 fragment (either 568-767 or 563-1121) was incubated with 0.2 μl or 1.4 μl in vitro transcribed and translated TR or GR, respectively. Binding was performed in the binding buffer described above supplemented with 20 μg/ml BSA and appropriate hormone. The chosen GST GRIP1 fragment concentrations were sufficient to bind either 70 or 100% of the TR derivatives. The reaction was incubated at 4° C. under rotation for 2 hours. In case of competition experiments, the appropriate concentration of peptides were added to the reaction before addition of receptors. However, no differences in the results were noted by adding the peptides after half of the incubation of the GST GRIP1 fragment with nuclear receptors. […] The fraction of bound nuclear receptors was determined by phosphoimager analysis.

MDM2 = MDM2 (Homo sapiens, UniProt Q00987); test: GRIP1 interaction with MDM2; type: binding; details: data not shown
Sequence of MDM2 (Q00987 whole entry, species assumed): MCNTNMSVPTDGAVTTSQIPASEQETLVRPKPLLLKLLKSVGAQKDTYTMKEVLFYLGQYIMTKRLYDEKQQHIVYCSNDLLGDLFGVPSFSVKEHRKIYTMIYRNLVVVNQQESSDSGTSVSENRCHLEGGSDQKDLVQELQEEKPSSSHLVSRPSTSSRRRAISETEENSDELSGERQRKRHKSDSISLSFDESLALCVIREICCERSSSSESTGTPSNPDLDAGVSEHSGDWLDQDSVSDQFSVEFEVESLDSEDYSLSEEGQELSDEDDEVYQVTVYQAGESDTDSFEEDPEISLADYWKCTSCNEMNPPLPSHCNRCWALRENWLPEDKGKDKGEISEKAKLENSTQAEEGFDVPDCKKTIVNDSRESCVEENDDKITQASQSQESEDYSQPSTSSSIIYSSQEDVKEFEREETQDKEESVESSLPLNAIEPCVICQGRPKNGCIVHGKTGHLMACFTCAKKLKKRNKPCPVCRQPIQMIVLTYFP

TAFII31 = molecular target: T3, TAFII31 (Homo sapiens, UniProt Q16594); test: GRIP1 interaction with TAFII31; type: binding; details: data not shown
T3 sequence (Q16594 1-264): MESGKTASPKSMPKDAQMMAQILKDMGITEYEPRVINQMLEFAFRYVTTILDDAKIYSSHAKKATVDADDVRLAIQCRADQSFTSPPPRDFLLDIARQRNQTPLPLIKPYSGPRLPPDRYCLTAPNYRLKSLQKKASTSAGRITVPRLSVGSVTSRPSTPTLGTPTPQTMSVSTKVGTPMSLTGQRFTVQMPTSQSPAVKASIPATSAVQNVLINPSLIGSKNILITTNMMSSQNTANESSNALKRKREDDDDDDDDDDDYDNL

hERα V376R mutant = molecular target: T4, hERα V376R mutant (Homo sapiens, UniProt P03372, V376R); test: In vitro binding of [35S]-labeled hERα mutant to GST-GRIP1; details: percentage of WT hERα
T4 construct: expression vector encoding full-length hERα, pSG5-er HEGO (WT or mutants); made in house; host or cells: hERα: in vitro translation implied by the [35S] label; GST-GRIP1: E. coli HB101
T4 sequence (P03372 1-595 V376R): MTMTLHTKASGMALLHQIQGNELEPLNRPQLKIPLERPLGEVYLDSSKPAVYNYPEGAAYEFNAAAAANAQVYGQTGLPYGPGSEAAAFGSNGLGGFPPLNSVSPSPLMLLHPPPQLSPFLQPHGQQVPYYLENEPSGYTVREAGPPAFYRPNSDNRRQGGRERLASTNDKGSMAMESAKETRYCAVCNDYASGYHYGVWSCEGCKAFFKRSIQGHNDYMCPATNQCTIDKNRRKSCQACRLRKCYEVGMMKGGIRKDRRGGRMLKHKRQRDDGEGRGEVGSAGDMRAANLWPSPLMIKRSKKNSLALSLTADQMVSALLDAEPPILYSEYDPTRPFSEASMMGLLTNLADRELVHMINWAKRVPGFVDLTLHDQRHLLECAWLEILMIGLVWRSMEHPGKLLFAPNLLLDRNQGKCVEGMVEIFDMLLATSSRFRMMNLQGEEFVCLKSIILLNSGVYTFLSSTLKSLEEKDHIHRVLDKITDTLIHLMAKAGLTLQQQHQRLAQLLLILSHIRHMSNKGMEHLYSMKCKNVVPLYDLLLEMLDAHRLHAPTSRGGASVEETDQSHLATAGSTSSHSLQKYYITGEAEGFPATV
Description: Beads were washed 3 times with 1 ml of binding buffer and the bound proteins were separated using 10% SDS-PAGE and visualized by autoradiography. Binding was quantitated by phosphorimaging using ImageQuant (Molecular Dynamics).

- competition with TR LBD interaction with GRIP1 (563-767) (hTRβ LBD [1]): increased affinity
Molecule: TSLKEKHKILHRLLQDS

- competition with TR LBD interaction with GRIP1 (563-767) (hTRβ LBD [1]): increased affinity
Molecule: KENALLRYLLDKDDTKD

- migration of DES-hERα-LBD complex in presence of peptide (hERα-LBD): retarded
- mobility of OHT-hERα-LBD complex on peptide addition (hERα-LBD): no effect
Molecule: 686-KHKILHRLLQDSS-698 (not fully specified; printed as 686-KHKILHRLLQDSS-698; listed as Homo sapiens) [GRIP1 NR-box 2 peptide]

- binding of GR to GRIP1 fragment (GR): binds most strongly
- loss of TR binding (hTRβ LBD [2]; hydrophobic residues of the NR-box replaced with alanine): about 50%
Molecule: NR-box 3: GST-GRIP1 (563-767) with hydrophobic residues of NR-box 2 replaced with alanine; NR-box 3 functional (ENALLRYLLDKDD)

- competition with TR LBD interaction with GRIP1 (563-767) (hTRβ LBD [1]): binds like a NR-box 2 peptide
Molecule: TSLKEKHKLLRYLLQDSS

- interaction with MDM2 (MDM2): no interaction was detected
- interaction with TAFII31 (TAFII31): no interaction was detected
- residual GRIP1 binding (hERα V376R mutant): 10%
B2: GRIP1: mouse p160 coactivator protein (protein)
chain: QNSPVNMNPPPLSKMGSLDSKDCFGLYGEPSEGTTGQAEASCHPEEQKGPNDSSMPQAASGDRAEGHSRLHDSKGQTKLLQLLTTKSDQMEPSPLPSSLSDTNKDSTGSLPGPGSTHGTSLKEKHKILHRLLQDSSSPVDLAKLTAEATGKELSQESSSTAPGSEVTVKQEPASPKKKENALLRYLLDKDDTKDIGLPEITPKLE

Continued, molecule first:

Molecule: LLRYLL (listed as Homo sapiens) [minimal motif of NR-box 3]
- competition with TR LBD interaction with GRIP1 (563-767) (hTRβ LBD [1]): does not compete

Molecule: ILHRLL (MUTAGEN (15)..(15) Ile --> Ala; listed as Homo sapiens) [peptide consisting of the NR-box 2]
- competition with TR LBD interaction with GRIP1 (563-767) (hTRβ LBD [1]): does not sufficiently compete

Molecule: PKKKENALLRYLLDKDDTKD
- competition with TR LBD interaction with GRIP1 (563-767) (hTRβ LBD [1]): increased affinity

B1: GRIP1 (563-767): fragment of GRIP1 containing all three NR-boxes, used as GST-fusion (protein)
chain: QNSPVNMNPPPLSKMGSLDSKDCFGLYGEPSEGTTGQAEASCHPEEQKGPNDSSMPQAASGDRAEGHSRLHDSKGQTKLLQLLTTKSDQMEPSPLPSSLSDTNKDSTGSLPGPGSTHGTSLKEKHKILHRLLQDSSSPVDLAKLTAEATGKELSQESSSTAPGSEVTVKQEPASPKKKENALLRYLLDKDDTKDIGLPEITPKLEHHHHHH
modifications: left off: a dimerising Fc or GST
notes: fragment of GRIP1 containing all three NR-boxes, used as GST-fusion
- affinity of GR for GRIP1 (563-767) relative to a comparable amount of TR (GR): about one-fifth
- binding of GR to GRIP1 fragment (GR): found to bind
- binding of TR to GST-GRIP1 (563-767) fragment (hTRβ LBD [2]; NR-box hydrophobic residues replaced with alanine where mutant): strongly binds TR

B3: GRIP1 (563-1121): GRIP1 (563-767) extended to residue 1121, GST fragment (protein)
chain: QNSPVNMNPPPLSKMGSLDSKDCFGLYGEPSEGTTGQAEASCHPEEQKGPNDSSMPQAASGDRAEGHSRLHDSKGQTKLLQLLTTKSDQMEPSPLPSSLSDTNKDSTGSLPGPGSTHGTSLKEKHKILHRLLQDSSSPVDLAKLTAEATGKELSQESSSTAPGSEVTVKQEPASPKKKENALLRYLLDKDDTKDIGLPEITPKLERLDSKTDPASNTKLIAMKTVKEEVSFEPSDQPGSELDNLEEILDDLQNSQLPQLFPDTRPGAPTGSVDKQAIINDLMQLTADSSPVPPAGAQKAALRMSQSTFNNPRPGQLGRLLPNQNLPLDITLQSPTGAGPFPPIRNSSPYSVIPQPGMMGNQGMLGSQGNLGNNSTGMIGSSTSRPSMPSGEWAPQSPAVRVTCAATTGAMNRPVQGGMIRNPTASIPMRANSQPGQRQMLQSQVMNIGPSELEMNMGGPQYNQQQAPPNQTAPWPESILPIDQASFASQNRQPFGSSPDDLLCPHPAAESPSDEGALLDQLYLALRNFDGLEEIDRALGIPELVSQSQAVDAEQFSSQE
modifications: left off: a dimerising Fc or GST
notes: GRIP1 (563-767) extended to residue 1121, GST fragment
- increase of binding to GR on extension of GRIP1 (563-767) to residue 1121 (GR): about 3 fold
- increase of binding of GR to GRIP1 (563-1121) in the absence of ligand (GR; GR deletion mutant lacking N-terminal AF-1 versus full length GR, no ligand): about 10 fold
